From US11547674B2, “Protein-polymer hybrid biomaterials” (The Regents of the University of California, priority 2018, dated 2023) come the findings set out here.

Broadly, the Km is the concentration of substrate that gives half-maximal velocity.

Data set [1] can be described thus: LDH enzyme kinetics (NADH generation, absorbance at 340 nm). The data set is classed as biochemical, Bacillus stearothermophilus. As to the method:
Enzyme kinetics was measured by absorbance increase at 340 nm in the generation of NADH. All assays were done at 25° C. and in 100 mM triethanolamine hydrochloride buffer following the protocols of Clarke et al. (Clarke, A. R., Wilks, H. M., Barstow, D. A., Atkinson, T., Chia, W. N. & Holbrook, J. J. An Investigation of the Contribution Made by the Carboxylate Group of an Active Site Histidine-Aspartate Couple to Binding and Catalysis in Lactate Dehydrogenase. Biochemistry 27, 1617-1622 (1988)]. Enzyme concentration of 100 nM were mixed with 10 mM NAD+ and 20 mM FBP with varying lactate concentrations for the assay. Km and Kcat were determined using GraphPad Michaelis-Menten curve fit.
Protocols for determining Kcat and Km of LDH were based on previous studies by Clarke et al.^48 Enzyme kinetics were measured by absorbance increases at 340 nm in the generation of NADH. All assays were done at 25° C. and in 100 mM triethanolamine hydrochloride buffer. Enzyme at 100 nM was mixed with 10 mM NAD^+ and 20 mM FBP with varying lactate concentrations. The initial slope of the absorbance vs. time was obtained for a range of lactate concentrations. This initial slope vs. concentration of lactate was plotted in GraphPad Prism and kinetic parameters (Km and kcat) were determined using a non-linear curve fit to the Michaelis-Menten equation.

Data set [2] can be described thus: Circular dichroism thermostability scan of LDH. The following applies: ˜60° C. Format: physicochemical. As for the experimental part: The tertiary structure and thermostability of WT and mutant LDH were obtained following the protocol of Molino et al. Jasco 810 spectropolarimeter equipped with Jasco Peltier temperature controller (Jasco, Easton, Md.) were used to measure the far-UV circular dichroism (CD). LDH samples were prepared at a concentration of 0.06 mg/ml in 50 mM potassium phosphate and 100 mM NaCl. Samples were scanned between 200-260 nm at 25 C at scanning speed of 10 nm/min in 0.1 pathlength quartz cells. Thermal unfolding was monitored at ellipticity at 217 nm from 60° C. to 90° C. at a heating rate of 1° C./min.
In general terms: Circular dichroism is widely used to follow secondary structure.

Setting [3] is: 25° C., 100 nM enzyme, 10 mM NAD+, 20 mM FBP, varying lactate.

B1: Wt-LDH: thermostable recombinant wild-type lactate dehydrogenase, amino acid sequence from Bacillus stearothermophilus (protein, UniProt P00344 1-317, looked up)
L-lactate dehydrogenase: MKNNGGARVVVIGAGFVGASYVFALMNQGIADEIVLIDANESKAIGDAMDFNHGKVFAPKPVDIWHGDYDDCRDADLVVICAGANQKPGETRLDLVDKNIAIFRSIVESVMASGFQGLFLVATNPVDILTYATWKFSGLPHERVIGSGTILDTARFRFLLGEYFSVAPQNVHAYIIGEHGDTELPVWSQAYIGVMPIRKLVESKGEEAQKDLERIFVNVRDAAYQIIEKKGATYYGIAMGLARVTRAILHNENAILTVSAYLDGLYGERDVYIGVPAVINRNGIREVIEIELNDDEKNRFHHSAATLKSVLARAFTR
For the molecule B1, the “catalytic activity of LDH” value in data set [1] was “catalytic”. Also, in data set [1] (setting [3]), the Kcat was 8.8 s⁻¹ and the Km is 38.5 mM. Moreover, in data set [2], the “denaturation at the NP reaction temperature” value was “does not denature”.
